Experiment: yeast display, Sf9 membrane polyspecificity reagent, FACS + sequencing; frameworks hold sequencing errors
Procedure, shortened: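 Synthetic nanobody libraries on Saccharomyces cerevisiae BJ5465 were galactose-induced for 36–48 hours, stained 1 hour at 4 °C with 10% biotinylated, detergent-solubilized Sf9 membrane reagent and enriched on streptavidin microbeads. FACS then separated cells into low and high (top ~1%) gates by anti-HA (expression) and streptavidin (reagent binding) fluorescence. Genes were colony-PCR amplified, MiSeq 2 × 250 sequenced and CDR-length filtered. A clone's polyreactivity label is that of its gate of origin.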

| Sequence | polyreactivity (PSR sort gate) |
| --- | --- |
| QVQLVESGGGLVQAGGSLRLSCAASGRTFKYYTMGWYRQAPGKERELVATISSSATSTYYADSVKGRFTISRDNAKNTVYLQMNSLKPEDTAVYYCAVERDYGWPIYIRWHFDYWGQGTQVTVSS | low polyreactivity |
| QVQLVESGGGLVQAGGSLRISCAASGITFGRYTMGWYRQAPGKERELVAAITNGDITYYADSVKGRFTISRDNAKNTVYLQMNSLKPDDTAVYYCAADRYFWYDYWGQATQVTVSS | high polyreactivity |
| QVQLEESGGGLVQAGGSLRLSCAASGSILPKYDMGWSRQAPGKERELVAAITRTGGRTYYADSVKGRFTISRDYAKNTVYLQMNSLKPEDTAVYFCAVRGFFWSTRSYRIRSEYDYWGQGTQVTVSS | low polyreactivity |
| QVQLVESGGGLVQAGGSLRLSCAASGRTFVYNAMGWYRQAPGKERELVAAINWRGGSTYYADSVKGRFTISRDNAKNTVSLQMNSLKPEDTAVYYCAPRNVYVWYDYWGQGTQVTVSS | low polyreactivity |
| QVQLVESGGGLVQAGGSLRLSCAASGNTFANYAMGWYRQAPGKERELVAAITSNGGSTYYADSVKGRFTISRDNAKNTVYLQMNSLKPEDTAVYYCAADAAYYSGYDYWGQGTQVTVSS | low polyreactivity |
| QVQLVESGGGLVQAGGSLRLSCAASGSTFANYAMGWYRQAPGKERELVAGISWRGGRTYYADSVKGRFTISRDNAKNTVYLQMNSLKPEDTAVYYCAVVHQTFTGDYWGQGTQVTVSS | high polyreactivity |
| QVQLVESGGGLVQAGGSLRLSCAASGNIFTYNTMGWYRQAPRKERELVAAISSGGSTYYADSVKGRFTISRDNAKNTVYLQMNSLKPEDTAVYYCNRRRWLWQTARGDYWGQGTQVTVSS | high polyreactivity |
| QVQLVESGGGLVQAGGSLRLSCAASGFTFYSYAMGWYRQAPGKERELVATITSAGSTNYADSVKGRFTISRDNAKNTVYLQMNSLKPEDTAVYYCAAVYYYIYYWGQVTQVTVSS | high polyreactivity |
| QVQLVESGGGIVQAGGSLRLSCAASGRTFRKNAMAWYRQAPGKERELVAAISASGTSTNYADSVKGRFTISRDNAKNTVYLQMISLIPEDTSVYYCDARSYGIYDYWGQGTQVTVSS | high polyreactivity |
| QVQLVESGGGLVQAGGSLRLSCAASGSTFHYYAMGWYRQAPGKERELVATITSSGCSTYYADSVKGRFTISRDNAKNTVYLQMNSLKPEDTAVYYCNKKSYYRDYGRYDYWGQGSQVTVSS | low polyreactivity |
| QVQLVESGGGLVQAGGSLRLSCAASGGTFGRYAMGWYRQAPGKERELVAAITYGGGSTYYADSVKGRFTISRDNAKNTVYLQMNSLKPEDTAVYYCNKYASLRYWGQGTQVTVSS | high polyreactivity |
| QVQLVESGGGLVQAGGSLRLTCAASGLTFNHNAMGWCRQAPGKERELVAAISRRGGSTYYADSVKGRFTISRDNAKNTVYLQMNSLKPEDTAVYYCAARRAWSWKIYDYWGQGTQVTVSS | high polyreactivity |
| QVQLVESGGGLVQAGGSLRLSCAASGLTFRRYAMGWYRPAPGKEREFVAAITHNGGRTYYADSVKGRFTISRDNAKNTVYLQMNSLKPEDTAVYYCNAGGQRVNYDYWGQGTQVTVSS | high polyreactivity |
| QDQLVESGGGLVQAGGSLRLSCAASGRIFGLYAMGCYRPAPGKERELVAAYADSVKGRFTISRDNAKNTVYLQMNSLKPEDTAVYYCAKGPLYAGYSIHLRDFNYWGQGTQVTVSS | low polyreactivity |
| QVQLVESGGGLVQAGGSLRLSCAASGIIFTYYAMGWYRQAPGKERELVAGISSSGGITYADSVKGRFTISRDNAKNTVYLQMNSLKPEDTAVYYCAAESYGRSETEDDYWGQGTQVTVSS | low polyreactivity |
| QVQLVESGGGLVQAGGSLRLSCAASGRIFYRNAMGWYRQAPGKERELVAAITGSTGNTYYADSVKGRFTISRDNAKNTVYLQMNSLKPEDTAVYYCIAGLGRWWHYPATYYYYWGQGTQVTVSS | low polyreactivity |

| Sequence | polyreactivity (PSR sort gate) |
| --- | --- |
| QVHLVESGGGLDQAGGSLRLSCAASASIFELYAMGWYRQAPGKERELVAVISTGGSTYYADSVKGRFTISRDNAKNTVYLQMNSLKPEDTAVYYCAKGGYVPKLEYWGQGTQVTVSS | high polyreactivity |
| QVQLVESAAGLVQAGGSLRLSCAASGSIFSYYAMGWSRQAPGKERELVAAITGRGGNTYYADSVKGRFTISRDNAKNTVYLQMNSLKPEDTAVDYCAKDYFGWYDVETPYDYWGQGTQVTVSS | low polyreactivity |
| QVQLVESGGGLVQAGGSLRLSCAASGSTLPRYAMGWYRQAPGKEREFVAAMTWRGGSTYYADSVKGRFTISRDNAKNTVYLQMNSLKPEDTAVYYCNTHRNGGSHRRYNYWGQGTQVTVSS | high polyreactivity |
| QVQLVESGGGLVQAGGSLRLSCAASGFIFSSYAMGWYRQAPGKERELVASIRRRGGSTYYADSVKGRFTISRDNAKNTVYLQMNSLKPEDTAVYYCAASRVSYGTRFDYWGQGTQVTVSS | high polyreactivity |
| QVQLVESGGGLVQAGGRLRLSCAASGSTFILNAMGWYRQAPGKERELVAAISRSGGNTYYADSVKRRFTISRDNAKNTVYLQMNSLKPADTAVYYCAATRRSHYYYWGQGTQVTVSS | high polyreactivity |
| QVQLVESGGRLVQAGGSLRLSCAASGFTFARYAMGWYRQAPGKERELVARISSDGGGTDYADSVKGRFTISRDNAKNTVYLQMNSLKPEDTAVYYCYADPYSRFWGPDYGYWGQGTQVTVSS | low polyreactivity |
| QVQLVESGGGLVQAGGSLRLSCAASGRIFYFYAMGWYRQAPGKERELVASISSGSSTNYADSVKGRFTISRDNAKNTVYLQMNSLKPEDTAVYYCAAQPWHGSRARSYYWGQGTQVTVSS | high polyreactivity |
| QVQLVETGGGLVQAGGSLSLSCAASGYIFEINAKGWYRQAPGKERELVADIRRGDSTNYADSVKGRFTISRDNSMNTVYLQMNSLKPEDTAVYYCAAYHRLFDYDYCGQGTQVTVSS | high polyreactivity |
| QVQLVESGGGLVQAGGSLRLSCAASGSIFLEYAMGWYRQAPGKERELVAAISSSGGSTYYADSVKGRFTISRDNAKYTVYLQMNSLKPEDTAVYYCAAGGHYYSSPGYNYWGQGTQVTVSS | high polyreactivity |
| QVQLVESGGGLVQAGGSLRLSCAASGSISDVYAMGWYRQAPGKERELVAAYADSVKGRFTISRDNAKNTVYLQMNCLKPVDTAVYYCNFVETSQELGWQAFDYWGQGTQVTVSS | low polyreactivity |
| QVQLVESGGGLVQAGGSLRLSCAASGSIFDFSAMGWYRQAPGKERELVAAISGSGGSTYYADSVKGRFTISRDNAKNTVYLQMNSLKPEDTAVYYCSYYYWGQGTQVTVSS | low polyreactivity |
| QVQLVESGGGLVQAGGSLRLSCAASGFTFPGYAMGWYRQAPGNEREFVAAITWSGGRTYYADSVKGRFTISRDNAKNTVYLQMNSLKPEDTAVYYCAAVYRGTWYDYDYWGQGTQVTVSS | high polyreactivity |
| QVQLVESGAVLVQAGGSLRLSCAASGGTFSGYTMGWYRQAPGKERELVAAITRSGSSTYYADSVKGRFTISRDNAKHTVYLQMNSLKPEDTAVSYCAATYPTSSSSYYNRYYWGQGTQVTVSS | high polyreactivity |
| QVQLVESGGGLVQAGGSLRLSCAASGSTFTVYAMGWYRQAPGKERELVAAISWGGGSTNYADSVKGRFTISRDNAKNTVYLQMNSLKPEDTAVYYCNADIDVIIGSWGDYWGQGTQVTVSS | low polyreactivity |
| QVQHVESGGGLVQAGGSLRLSCAASGSILDIYAMGWYRQATGKERELVAAITGGGSTNYADSVNGRFTISRDNAKNTVYLLMNSLKPEDTAVYYCAAGTYLNGGGEYWGQGTQVTVSS | low polyreactivity |
| QVQLVESGGGLVQAGGSLRLSCAASGSTFRFNAMGWYRQAPGKERELVAAITSTGSTYYADSVKGRFTISRDNAKNTVYLQMNSLKPEDTADYYCAATYPRYRATPRYYSWGQGTQVTVSS | high polyreactivity |

Reference: the nanobody polyreactivity screen of Harvey et al. (2022)
